Source: patent US20260297164A1, “ANTI-FIBROTIC PEPTIDES AND USES THEREOF” (Deackt, Inc., priority 2021, published 2026)

Tested on: PI3K/Akt/mTOR signaling in lung fibroblasts
Assay: TGF-β1 stimulation of PI3K/Akt/mTOR signaling in lung fibroblasts
Assay type: cell-based, mouse
Details: TGF-β1 10 ng/ml, 24 h
Procedure: FIG. 3. CD148 deficiency enhances PI3K/Akt/mTOR signaling which results in low autophagy, high p62 expression in lung fibroblasts. (A) Mouse lung fibroblasts were isolated from Ptprj^fl/fl Col1a2^Cre-ER(T)+/0 mice (Ptprj−/−) and Col1a2^Cre-ER(T)+/0 mice (WT) and then treated with 4-OHT (1 μM) for 24 h. After 4-OHT treatment, cells were exposed to TGF-β1 (10 ng/ml) for 24 h. After stimulation, cells were harvested, and the expression of p-p85 (Tyr458), p-Akt (Ser473), pmTOR (Ser2448), p-p70 S6 kinase (Thr389), p-S6 ribosomal protein (Ser235/236) and CD148 (n=4 for each condition) in lysates was determined by Western immunoblotting and corresponding densitometry (ImageJ software). Data were normalized to corresponding dephospho-forms or GAPDH. (B) WT and Ptprj−/− cells were stimulated with TGF-β1 (10 ng/ml) for 24 h. Then cells were lysed and LC3-I and -II and p62 were measured by western blot (n=4). […] Then, autophagy flux was measured by LC3-II accumulation in the absence or presence of lysosomal acidification inhibitor chloroquine (25 μM) at 2, 4 and 6 h (n=4). […] LC3 puncta positive cells were quantified using ImageJ (D). […]
Polyacrylamide gel electrophoresis and immunoblotting were performed according to standard methods. […] The signals were detected by ECL (Thermo Fisher Scientific, Waltham, MA). […]

TGF-β1
phosphorylation of PI3K (p85 subunit), Akt, mTOR and mTOR-related signaling proteins (p70 S6-kinase and S6): upregulated
